Data taken from PMC5986150.

Assays:
[1] = target: 12-ADA CaM (Drosophila melanogaster calmodulin engineered with an N-terminal N-myristoyl transferase recognition peptide and labelled with 12-azidododecanoic acid) (Drosophila melanogaster) (UniProt P62152); test: pull-down; purified 12-ADA CaM (1, 2 or 5 mg mL^-1) conjugated to DBCO-Sepharose; clarified E. coli lysate with CaN (25 mM Tris pH 7.5, 3 mM MgCl2, 100 mM NaCl, 2 mM CaCl2) incubated with the resin at 4°C for 45 minutes - 1 hr; washes with 2 mM CaCl2, one with 1 M NaCl; eluted with 1 mM EGTA; semi-quantitative SDS-PAGE with Coomassie
[2] = target: 12-ADA CaM (Drosophila melanogaster calmodulin engineered with an N-terminal N-myristoyl transferase recognition peptide and labelled with 12-azidododecanoic acid) (Drosophila melanogaster) (UniProt P62152); test: pull-down; 12-ADA CaM conjugated to DBCO-Sepharose directly from clarified lysate, resin washed; clarified E. coli lysate with CaN (25 mM Tris pH 7.5, 3 mM MgCl2, 100 mM NaCl, 2 mM CaCl2) incubated with the resin at 4°C for 45 minutes - 1 hr; washes with 2 mM CaCl2, one with 1 M NaCl; eluted with 1 mM EGTA; semi-quantitative SDS-PAGE with Coomassie
[3] = target: Calmodulin of Calmodulin Sepharose 4B (GE Healthcare Life Sciences) (UniProt P62157); test: pull-down; commercial Calmodulin Sepharose 4B (GE); clarified E. coli lysate with CaN (2 mM CaCl2) incubated with the resin at 4°C, in parallel with the 12-ADA CaM resins; eluted with 1 mM EGTA; semi-quantitative SDS-PAGE with Coomassie

- avg. amount of CaN purified from the resin [1]: 0.1 mg
- avg. amount of CaN purified from the resin [2]: 0.6 mg
- avg. amount of CaN purified from the resin [3]: 0.2 mg
Substance: Human calcineurin (CaN), α and β subunits (from UniProt Q08209 1-521; P63098 1-170) (complex)
